According to the supplement of paper PMC7877785:
± gives the uncertainty stated by the source.

Assay: self-splicing fitness, log relative to wild type (ln ratio); higher = more splicing; Tetrahymena group I intron in knt gene, E. coli kanamycin selection, DiMSum; sequences stand for … in CUCUCU…GGAGGGAAAAGUUAUCAGGCAUGCACCUGGUAGCUAGUCUUUAAACCAAUAGAUUGCAUCGGUUUAAAAGGCAAGACCGUCAAAUUGCGGGAAAGGGGUCAACAGCCGUUCAGUACCAAGUCUCAGGGGAAACUUUGAGAUGGCCUUGCAAAGGGUAUGGUAAUAAGCUGACGGACAUGGUCCUAACCACGCAGCCAAGUCCUAAGUCAACAGAUCUUCUGUUGAUAUGGAUGCAGUUCACAGACUAAAUGUCGGUCGGGGAAGAUGUAUUCUUCUCAUAAGAUAUAGUCGGACCUCUCCUUAAUGGGAGCUAGCGGAUGAAGUGAUGCAACACUGGAGCCGCUGGGAACUAAUUUGUAUGCGAAAGUAUAUUGAUUAGUUUUGGAGUACUCGUGGUCG
Method in brief: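 A randomised library covering all eight P1ex-region intron nucleotides was built with the intron in the knt kanamycin-resistance gene on pET-22b(+) and held in E. coli BL21(DE3). Cells were grown overnight at 37°C or 30°C on LB agar, with or without 25 μg/mL kanamycin, plus 100 μg/mL carbenicillin, 50 μM IPTG and 0.2% rhamnose, and pooled colonies were amplicon-sequenced on an Illumina HiSeq 2500. DiMSum fitness is the error-weighted combination of wild-type-normalised replicate fold changes, kanamycin versus none.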

Sequence: CGCCAGCAAUAUUACGCCAA
- self-splicing fitness (ln) (30 °C): -1.59 ± 0.23
- self-splicing fitness (ln) (37 °C): -2.02 ± 0.46

Sequence: GGUCAGCAAUAUUACGCUAA
- self-splicing fitness (ln) (30 °C): -1.1 ± 0.095
- self-splicing fitness (ln) (37 °C): 0.512 ± 0.13

Sequence: AUUUAGCAAUAUUACGCGCG
- self-splicing fitness (ln) (30 °C): -1.28 ± 0.2
- self-splicing fitness (ln) (37 °C): -0.257 ± 0.22

Sequence: AUACAGCAAUAUUACGAACG
- self-splicing fitness (ln) (30 °C): -0.79 ± 0.12
- self-splicing fitness (ln) (37 °C): -1.44 ± 0.17

Sequence: AGAGAGCAAUAUUACGUCUG
- self-splicing fitness (ln) (30 °C): -4.03 ± 0.33
- self-splicing fitness (ln) (37 °C): -2.38 ± 0.31

Sequence: GUUCAGCAAUAUUACGACGC
- self-splicing fitness (ln) (30 °C): 0.0985 ± 0.12
- self-splicing fitness (ln) (37 °C): 0.651 ± 0.23

Sequence: CUUCAGCAAUAUUACGACGG
- self-splicing fitness (ln) (30 °C): -2.16 ± 0.13
- self-splicing fitness (ln) (37 °C): -0.57 ± 0.23

Sequence: CUAAAGCAAUAUUACGAACG
- self-splicing fitness (ln) (30 °C): 0.195 ± 0.089
- self-splicing fitness (ln) (37 °C): 0.868 ± 0.12

Sequence: ACUUAGCAAUAUUACGCCUU
- self-splicing fitness (ln) (30 °C): -0.353 ± 0.095
- self-splicing fitness (ln) (37 °C): -0.14 ± 0.11

Sequence: GUAAAGCAAUAUUACGAGUG
- self-splicing fitness (ln) (30 °C): -1.69 ± 0.059
- self-splicing fitness (ln) (37 °C): -0.403 ± 0.08

Sequence: ACGAAGCAAUAUUACGCACC
- self-splicing fitness (ln) (30 °C): -0.755 ± 0.16
- self-splicing fitness (ln) (37 °C): -0.0218 ± 0.22

Sequence: AUUGAGCAAUAUUACGGCAC
- self-splicing fitness (ln) (30 °C): -3.48 ± 0.37
- self-splicing fitness (ln) (37 °C): -0.518 ± 0.33

Sequence: CAAAAGCAAUAUUACGGCAG
- self-splicing fitness (ln) (30 °C): 0.126 ± 0.077
- self-splicing fitness (ln) (37 °C): -0.164 ± 0.089

Sequence: AUCCAGCAAUAUUACGUUCA
- self-splicing fitness (ln) (30 °C): -1.02 ± 0.068
- self-splicing fitness (ln) (37 °C): -0.265 ± 0.072

Sequence: ACCCAGCAAUAUUACGACAC
- self-splicing fitness (ln) (30 °C): -2.41 ± 0.091
- self-splicing fitness (ln) (37 °C): -0.292 ± 0.083

Sequence: CAAAAGCAAUAUUACGAUCU
- self-splicing fitness (ln) (30 °C): -2.14 ± 0.078
- self-splicing fitness (ln) (37 °C): -0.593 ± 0.09

Sequence: GUUUAGCAAUAUUACGCGCG
- self-splicing fitness (ln) (30 °C): -0.802 ± 0.1
- self-splicing fitness (ln) (37 °C): -0.0312 ± 0.18

Sequence: UGUUAGCAAUAUUACGAAAG
- self-splicing fitness (ln) (30 °C): -2.64 ± 0.14
- self-splicing fitness (ln) (37 °C): -2.73 ± 0.25

Sequence: CCUCAGCAAUAUUACGGCCC
- self-splicing fitness (ln) (30 °C): -4.21 ± 0.39

Sequence: GAGAAGCAAUAUUACGAGCG
- self-splicing fitness (ln) (30 °C): -1.15 ± 0.16
- self-splicing fitness (ln) (37 °C): -0.106 ± 0.18

Sequence: CACGAGCAAUAUUACGGGAC
- self-splicing fitness (ln) (30 °C): -3.36 ± 0.2
- self-splicing fitness (ln) (37 °C): -2.55 ± 0.23

Sequence: GGCCAGCAAUAUUACGAAUC
- self-splicing fitness (ln) (30 °C): -0.266 ± 0.11
- self-splicing fitness (ln) (37 °C): 0.822 ± 0.14

Sequence: GAGCAGCAAUAUUACGAGUA
- self-splicing fitness (ln) (30 °C): -2.42 ± 0.34
- self-splicing fitness (ln) (37 °C): -1.92 ± 0.26

Sequence: CAUUAGCAAUAUUACGCACU
- self-splicing fitness (ln) (30 °C): -1.26 ± 0.1
- self-splicing fitness (ln) (37 °C): -0.806 ± 0.13

Sequence: GAUAAGCAAUAUUACGAUAA
- self-splicing fitness (ln) (30 °C): -1.46 ± 0.13
- self-splicing fitness (ln) (37 °C): 0.344 ± 0.13

Sequence: GCAAAGCAAUAUUACGUCGG
- self-splicing fitness (ln) (30 °C): -3.15 ± 0.19
- self-splicing fitness (ln) (37 °C): -1.22 ± 0.13

Sequence: AUUAAGCAAUAUUACGGAGU
- self-splicing fitness (ln) (30 °C): -1.69 ± 0.14
- self-splicing fitness (ln) (37 °C): -0.962 ± 0.15

Sequence: GGUGAGCAAUAUUACGCCGA
- self-splicing fitness (ln) (30 °C): -2.06 ± 0.46
- self-splicing fitness (ln) (37 °C): -1.46 ± 0.48

Sequence: AACGAGCAAUAUUACGCUAC
- self-splicing fitness (ln) (37 °C): -1.86 ± 0.31

Sequence: UCAGAGCAAUAUUACGGUGG
- self-splicing fitness (ln) (30 °C): -3.06 ± 0.089
- self-splicing fitness (ln) (37 °C): -1.32 ± 0.084

Sequence: GGACAGCAAUAUUACGCUUA
- self-splicing fitness (ln) (30 °C): -0.319 ± 0.08
- self-splicing fitness (ln) (37 °C): 0.1 ± 0.1

Sequence: GCACAGCAAUAUUACGGUUC
- self-splicing fitness (ln) (30 °C): -0.415 ± 0.055
- self-splicing fitness (ln) (37 °C): -0.0499 ± 0.073

Sequence: UGAUAGCAAUAUUACGAUUC
- self-splicing fitness (ln) (30 °C): -2.33 ± 0.24
- self-splicing fitness (ln) (37 °C): -2.41 ± 0.49

Sequence: AAGUAGCAAUAUUACGUGGU
- self-splicing fitness (ln) (30 °C): -3.68 ± 0.18
- self-splicing fitness (ln) (37 °C): -1.93 ± 0.15

Sequence: UUGUAGCAAUAUUACGGGAA
- self-splicing fitness (ln) (30 °C): -2.13 ± 0.17
- self-splicing fitness (ln) (37 °C): -1.32 ± 0.16

Sequence: GUGCAGCAAUAUUACGACUG
- self-splicing fitness (ln) (30 °C): -4.5 ± 0.39
- self-splicing fitness (ln) (37 °C): -2.84 ± 0.28

Sequence: CGUAAGCAAUAUUACGUAAU
- self-splicing fitness (ln) (30 °C): -3.23 ± 0.16
- self-splicing fitness (ln) (37 °C): -2.64 ± 0.18

Sequence: GGAUAGCAAUAUUACGGCAU
- self-splicing fitness (ln) (30 °C): -0.507 ± 0.09
- self-splicing fitness (ln) (37 °C): 0.598 ± 0.11

Sequence: GUCCAGCAAUAUUACGGCGC
- self-splicing fitness (ln) (30 °C): -0.166 ± 0.15
- self-splicing fitness (ln) (37 °C): 0.208 ± 0.22

Sequence: GACUAGCAAUAUUACGGUCU
- self-splicing fitness (ln) (30 °C): -3.36 ± 0.22
- self-splicing fitness (ln) (37 °C): -3.21 ± 0.33

Sequence: CUCUAGCAAUAUUACGAGGA
- self-splicing fitness (ln) (30 °C): -2.32 ± 0.19
- self-splicing fitness (ln) (37 °C): -1.59 ± 0.17

Sequence: CGACAGCAAUAUUACGGCUG
- self-splicing fitness (ln) (30 °C): -3.32 ± 0.19
- self-splicing fitness (ln) (37 °C): -0.951 ± 0.16

Sequence: GUUGAGCAAUAUUACGGAUC
- self-splicing fitness (ln) (30 °C): -1.91 ± 0.14
- self-splicing fitness (ln) (37 °C): -1.16 ± 0.14

Sequence: GGCCAGCAAUAUUACGAGUA
- self-splicing fitness (ln) (30 °C): -2.59 ± 0.12
- self-splicing fitness (ln) (37 °C): -2.05 ± 0.12

Sequence: UUUAAGCAAUAUUACGCCAG
- self-splicing fitness (ln) (30 °C): -1.08 ± 0.15
- self-splicing fitness (ln) (37 °C): -0.457 ± 0.2

Sequence: ACAGAGCAAUAUUACGGGUA
- self-splicing fitness (ln) (30 °C): -2.47 ± 0.36
- self-splicing fitness (ln) (37 °C): -3 ± 0.31

Sequence: GUCAAGCAAUAUUACGCUUC
- self-splicing fitness (ln) (30 °C): -4.61 ± 0.42
- self-splicing fitness (ln) (37 °C): -2.4 ± 0.25

Sequence: ACGCAGCAAUAUUACGGCAA
- self-splicing fitness (ln) (30 °C): -0.804 ± 0.078
- self-splicing fitness (ln) (37 °C): -0.421 ± 0.084
